# B1: N-ABD094-rhArg: albumin binding domain ABD094 fused N-terminally to recombinant human arginase I, SEQ ID NO: 50 (protein)
# chain: MHHHHHHDEAVDANSLAEAKEAANAELDSYGVSDFYKRLIDKAKTVEGVEALKDAILAALPSGSNNNNNNGSGGMSAKSRTIGIIGAPFSKGQPRGGVEEGPTVLRKAGLLEKLKEQECDVKDYGDLPFADIPNDSPFQIVKNPRSVGKASEQLAGKVAEVKKNGRISLVLGGDHSLAIGSISGHARVHPDLGVIWVDAHTDINTPLTTTSGNLHGQPVSFLLKELKGKIPDVPGFSWVTPCISAKDIVYIGLRDVDPGEHYILKTLGIKYFSMTEVDRLGIGKVMEETLSYLLGRKKRPIHLSFDVDGLDPSFTPATGTPVVGGLTYREGLYITEEIYKTGLLSGLDIMEVNPSLGKTPEEVTRTVNTAVAITLACFGLAREGNHKPIDYLNPPK
# modifications: Mn2+; N-ABD094-rhArg, Synthesized in the Lab
# Tests used:
# [1] = tested on: mouse primary hepatocytes; test: Mouse primary hepatocytes: MTT viability and pAkt Western blot; assay type: cell-based
# Procedure: Data are expressed as mean±SEM, n=5 for each group. […] (C) Western blot analysis of protein levels of phosphorylated Akt (pAkt) (marker of insulin signaling) in […] […] Lane 1: con; Lane 2: 5U/mL N-ABD094-rhArg (SEQ ID NO: 50); Lane 3: 100 nM insulin; Lane 4: 5U/mL N-ABD094-rhArg (SEQ ID NO: 50) +100 nM insulin.
# Obesity is highly associated with insulin resistance. We therefore conducted both in vivo and in vitro study to determine whether N-ABD094-rhArg (SEQ ID NO: 50) treatment will have effects on insulin sensitivity. […] […] Cells were then collected for Western blot analysis to detect phosphorylated protein kinase B (pAkt), which is commonly used as marker of insulin signaling.
# [2] = tested on: mouse 3T3-L1 preadipocytes; test: 3T3-L1 preadipocyte differentiation (oil red O, qRT-PCR); assay type: cell-based
# Procedure: FIG. 23 illustrates that arginine depletion by adding N-ABD094-rhArg (SEQ ID NO: 50) (rhArg), bovine arginase or native arginine deiminase (ADI) to the culture medium, or using arginine-free medium inhibited the differentiation of mouse 3T3-L1 preadipocytes into adipocytes. […] (*The culture medium contains 0.4 mM L-arginine and can be converted into 0.4 mM L-ornithine and 0.4 mM urea by arginase, or 0.4 mM L-citrulline by ADI.). Cells grown in culture medium without addition of arginine depleting agents or metabolic products of arginase/ADI served as the control. Lipids in cells were stained with oil red O at 6 days after exposure to specific differentiation-inducing factors added to the medium.
# FIG. 24 illustrates that N-ABD094-rhArg (SEQ ID NO: 50) could suppress adipogenic and lipogenic genes in 3T3-L1 preadipocytes. Mouse 3T3-L1 preadipocytes were cultured for 6 days in medium supplemented with specific factors to induce differentiation into adipocytes (differentiated). Cells grown in medium without these factors remained undifferentiated. The medium was added with 2U/mL N-ABD094-rhArg (SEQ ID NO: 50) (rhArg). Cells grown in medium without the addition of N-ABD094-rhArg served as the control. The mRNA expression levels of several crucial (A) transcriptional regulators of adipogenesis, and (B) enzymes in lipogenic pathways were determined by real-time qRT-PCR, and expressed relative to the undifferentiated (control) group, which is set as 1. *P<0.05, one-way ANOVA followed by Fisher's LSD. Data are expressed as mean±SEM, n=3 for each group.
# FIG. 25 illustrates the response of 3T3-L1 preadipocytes to various concentrations of arginine Mouse 3T3-L1 preadipocytes were cultured in arginine-free medium with or without addition of varying concentrations of L-arginine for 6 days. Cells cultured in normal arginine-containing medium supplemented with differentiation inducing factors served as the positive (+ve) control of differentiation, while cells cultured in normal arginine-containing medium without supplementation of differentiation inducing factors served as the negative (−Ve) control of differentiation. One group of cells was cultured in normal arginine-containing medium supplemented with differentiation inducing factors and treated with 5U/mL N-ABD094-rhArg (SEQ ID NO: 50) (rhArg) to inhibit differentiation. (A) Cells were stained for lipids with oil red O, and staining intensity was quantified by measuring optical density, which is expressed as the percentage against the +ve control group. (B) The mRNA levels of several crucial lipogenesis related genes are expressed relative to cells cultured in arginine-free medium, which is set as 1. Data are expressed as mean±SEM, n=3 for each group.
# To test the effect of N-ABD094-rhArg (SEQ ID NO: 50) on fat cells, mouse 3T3-L1 preadipocytes were used, which are commonly employed as cell-based model for studying adipogenesis [Green and Meuth, 1974, Cell 3:127-133].
# [3] = LFD-fed mice treated for 8 months: anti-drug antibody and safety; assay type: in vivo, C57BL/6J male mice
# Procedure: FIG. 56 illustrates that C57BL/6J male mice fed a LFD and received an intraperitoneal injection of 500U N-ABD094-rhArg (SEQ ID NO: 50) [LFD(rhArg) group] once a week for 8 months starting from 5 week old had developed non-neutralizing anti-drug antibody. (A) Using an ELISA assay, anti-rhArg antibodies, with an average antibody titer of 10^8, could be detected in the plasma of LFD-fed mice treated with N-ABD094-rhArg. (B) The plasma was incubated with 1,000U/mL N-ABD094-rhArg (rhArg*) for 1 hr followed by measurement of arginase activity. There was no reduction in arginase activity, showing that the antibodies generated in the animal against the drug were not neutralizing antibodies. Data are expressed as mean±SEM, n=3 for each group.
# Generation of neutralizing antibodies may affect the pharmacodynamics, pharmacokinetic, stability and efficacy of a drug. To determine the immunogenic response, 8 week old C57BL/6J male mice fed a LFD received i.p. injection of 500U of N-ABD094-rhArg (SEQ ID NO: 50), or saline as vehicle control, at 7-day intervals for 8 months.
# To assess the safety of long-term use, serum and urine samples from LFD-fed mice treated with N-ABD094-rhArg (SEQ ID NO: 50) for 8 months were collected for analysis of ALT and AST, which are commonly used biomarkers of liver damage, and serum creatinine and urine albumin/creatinine ratio for assessing kidney functions.
# [4] = Enzyme kinetics after metal ion substitution; assay type: biochemical
# Procedure: Wild type arginase typically includes a Mn^2+ metal ion (D′Antonio & Christianson, 2011, Biochemistry, 50:8018-27). […] Purified N-ABD094-rhArg (SEQ ID NO: 50) in 20 mM Tris-HCl buffer (pH 7.4) was mixed with 20 mM of different divalent metal ions (Mn^2+, Ni^2+ or Co^2+), and was incubated at 52-55° C. for 15-60 min and then buffer exchanged with PBS buffer (pH 7.4).
# Samples were subjected to enzyme activity and enzyme kinetic studies to determine the specific activity and catalytic efficiency (kcat/Km). Samples were applied to inductively coupled plasma atomic emission spectroscopy (ICP-OES, Agilent 700 Series ICP optical emission spectrometer) for quantitative analysis of metal content.
molecule,measurement,setting,value
B1,phosphorylation of Akt upon insulin stimulation,"[1]; 5U/mL 24 hr, then 100 nM insulin 20 min",prominent increase
same,cell viability (MTT),"[1]; 5U/mL, 48 hr",did not affect cell viability
same,mRNA levels of adipogenic transcription factors and lipogenic enzymes,"[2]; 2U/mL, 6 days",significantly suppressed
same,adipogenesis and lipogenesis in 3T3-L1 cells (oil red O),"[2]; added to culture medium, 6 days of differentiation",effectively inhibit
same,average anti-rhArg antibody titer in plasma (ELISA),[3]; 500U i.p. weekly for 8 months,10^8
same,"serum ALT, AST, creatinine and urine albumin/creatinine ratio vs vehicle",[3]; 500U weekly for 8 months,did not show any significant differences
same,plasma arginine concentrations throughout the study period,"[3]; 500U weekly for 8 months, Biochrom 30 detection limit",< 3 µM
same,"vascular reactivity of isolated arteries (phenylephrine, acetylcholine, sodium nitroprusside) vs vehicle","[3]; 500U weekly for 8 months, wire myography",no significant differences
same,effect of anti-drug antibodies on arginase activity,"[3]; plasma incubated with 1,000U/mL drug for 1 hr",did not have neutralizing effects
same,Km,[4],1370 to 1890 µM
same,kcat,[4],82 to 98 s⁻¹

# — patent US20200181597A1, “Composition and Application of Arginine-depleting Agents for Cancer, Obesity, Metabolic Disorders, and Related Complications and Comorbidities” (THE HONG KONG POLYTECHNIC UNIVERSITY, priority 2018, published 2020)
